The text below walks through data of patent US20210079060A1 (ALETA BIOTHERAPEUTICS, published 2021).

Where “and” joins values, the source holds several entries; their conditions need not be identical. Identical values can stand only once.

In assay [1] the target is T1, CD20 (UniProt P11836 1-297, limits assumed).
T1 construct: whole, on cells; also called CD20 positive HEK293 cells
T1 sequence (looked up): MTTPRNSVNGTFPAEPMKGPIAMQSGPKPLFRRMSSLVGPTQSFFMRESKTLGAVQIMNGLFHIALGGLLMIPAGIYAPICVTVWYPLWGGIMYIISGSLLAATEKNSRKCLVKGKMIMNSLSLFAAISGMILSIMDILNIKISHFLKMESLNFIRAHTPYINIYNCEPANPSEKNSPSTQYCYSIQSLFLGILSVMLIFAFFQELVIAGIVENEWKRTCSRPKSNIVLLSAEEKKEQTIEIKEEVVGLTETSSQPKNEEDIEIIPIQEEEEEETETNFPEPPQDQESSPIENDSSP
Nature of the assay: binding to CD20 positive HEK293 cells (method of the fit not stated).

The target in assay [2] is T1, CD20. Nature of the assay: FACS on CD20 positive HEK293 cells, detected with FMC63-PE.
Assay [3] deals with T1, CD20. Nature of the assay: binding to CD20 positive cells; unit as printed in the table, but the x-axis of the curve is in ng/ml and the half-maximum lies near 20 on it.
Assay [4] concerns the target T1, CD20. As to the kind of experiment: binding to CD20 positive cells; unit as printed in the table; it follows from 22.34 ug/ml and MW 210.8 kDa, while the curve's axis is in ng/ml.

B1: Rituximab-CD19 construct (#377/378) (antibody, human IgG1, kappa)
light: QIVLSQSPAILSASPGEKVTMTCRASSSVSYIHWFQQKPGSSPKPWIYATSNLASGVPVRFSGSGSGTSYSLTISRVEAEDAATYYCQQWTSNPPTFGGGTKLEIKRTVAAPSVFIFPPSDEQLKSGTASVVCLLNNFYPREAKVQWKVDNALQSGNSQESVTEQDSKDSTYSLSSTLTLSKADYEKHKVYACEVTHQGLSSPVTKSFNRGECGGGGSGGGGSGGGGSGGGGSPEEPLVVKVEEGDTAALWCLKGTSDGPTQQLTWSRESPLKPFLKYSLGVPGLGVHVRPDAISVVIRNVSQQMGGFYLCQPGPPSEKAWQPGWTVNVEGSGELFRWNVSDLGGLGCGLKNRSSEGPSSPSGKLMSPKLYVWAKDRPEIWEGEPPCLPPRDSLNQSLSRDLTVAPGSTLWLSCGVPPDSVSRGPLSWTHVHPKGPKSLLSLELKDDRPARDMWVMGTSLMLPRATAQDAGKWYCHRGNLTMSFHLEITARPSRHHHHHH
heavy: not shown
notes: also called Rituximab-based construct; wild type Rituximab-CD19 construct
A word on the Kd: it is the constant that tells how readily two partners part at equilibrium. Higher therefore signals weaker binding. Usually EC50 stands for the concentration at which the effect is half-maximal. A low value points to an effect from little substance. Turning to B1, the Kd in assay [1] is around 0.016 nM. Moreover, the concentration for a half-maximal effect (EC50) was 0.00343 µg/mL and 0.0163 nM in assay [2]; 22.3 mg/L in assay [3]; 106 nM in assay [4].
